From the Immune Epitope Database (IEDB)

Tests used:
Assay in all cases: IEDB peptide-MHC binding, purified MHC/direct/fluorescence; filed as Kd, often an IC50 or EC50 that approximates it; ≥ and ≤ were set here for values at or beyond the usual limits of such assays
HLA-B*39:01 = settings: source organism: Yellow fever virus
HLA-B*51:01 = target: HLA-B*51:01
HLA-B*40:01 = settings: source organism: Yellow fever virus
HLA-A*31:01 = target: HLA-A*31:01
HLA-A*01:01 = settings: source organism: dengue virus type 2
HLA-A*03:01 = settings: source organism: Yellow fever virus
HLA-B*07:02 = settings: source organism: Yellow fever virus
HLA-B*15:01 = settings: source organism: dengue virus type 4
[1] = source organism: Yellow fever virus

With CRTAFKPVL the Kd (HLA-B*39:01) was 2060 nM.
With ERWFVRNPF the Kd (HLA-B*39:01) was no less than 20000 nM.
For FHERGYVKL, the Kd (HLA-B*39:01) was 35 nM.
FHKRDMRLL was tested, and the Kd (HLA-B*39:01) was no less than 20000 nM.
In the case of FTMRLLSPV, the Kd (HLA-B*51:01; source organism: dengue virus type 1) is reported as no less than 20000 nM.
Work on GEAMDTISV yielded a Kd (HLA-B*39:01) of no less than 20000 nM and a Kd (HLA-B*40:01) of no more than 1 nM.
Work on IQYVIRAQL yielded a Kd (HLA-B*39:01) of 682 nM.
KTWAYHGSY showed a Kd (HLA-A*31:01; source organism: dengue virus type 2) of no less than 20000 nM and a Kd (HLA-A*01:01) of no less than 20000 nM.
For LTLKGTSYK, the Kd (HLA-A*03:01) was 104 nM and the Kd (HLA-A*31:01; [1]) was 518 nM.
For MPRSIGGPV, the Kd (HLA-B*07:02) was 5 nM and the Kd (HLA-B*51:01; [1]) was 858 nM.
For MVIFFMSPK, the Kd (HLA-A*03:01) was 610 nM and the Kd (HLA-A*31:01; [1]) was 1400 nM.
PHAATIRVL was tested, and the Kd (HLA-B*39:01) was 960 nM.
RADEINAIL showed a Kd (HLA-B*39:01) of 156 nM.
Sequence RMGERQLQK has a Kd (HLA-A*03:01) of 340 nM and a Kd (HLA-A*31:01; [1]) of 187 nM.
Work on RTWAYHGSY yielded a Kd (HLA-A*31:01; source organism: dengue virus type 4) of 37 nM and a Kd (HLA-B*15:01) of 12 nM.
SSARYDVAL was tested, and the Kd (HLA-B*39:01) was 377 nM.
In the case of TKDTNDNNL, the Kd (HLA-B*39:01) is reported as 136 nM.
VRGGMVAPL showed a Kd (HLA-B*39:01) of 5370 nM.
